Reference: patent publication US20140170153A1 (Novo Nordisk, published 2014)
“And” between values parts separate entries of the source, which are not always exact repeats. Equal entries are not always repeated.

Experiments:
[1] = biological target: T1, human recombinant IL-21 (expressed in E. coli as the mature peptide); residues 30-162 of SEQ ID NO: 1 with an … (human, UniProt Q9HBE4 30-162); test: SPR Biacore T200, 25 C; mAb captured by anti-human Fc, hIL-21 analyte, 1:1 Langmuir; Exp 2
T1 construct: The SPR and cell assays say only IL-21 / hIL-21 / recombinant human IL-21; also called hIL-21; human IL-21
T1 sequence (Q9HBE4 other isoform, or with tags, fused parts or gaps): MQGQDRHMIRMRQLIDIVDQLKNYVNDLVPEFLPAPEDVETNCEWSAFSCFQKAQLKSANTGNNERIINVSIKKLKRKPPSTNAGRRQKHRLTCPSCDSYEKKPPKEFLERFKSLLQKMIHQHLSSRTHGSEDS
Procedure: (§1) Anti-human Fc monoclonal antibodies from Biacore human Fc capture kit was immobilized onto flow cells of a CM4 sensor chip according to the manufacturer's instructions. The final immobilization level of capture antibody was approximately 2,500 RU in one experiment. […] Binding of hIL-21 protein was conducted by injecting analyte over all flow cells to allow for comparative analyses of binding to different captured anti-IL-21 antibodies relative to binding to the reference flow cell. hIL-21 protein was diluted serially 1:3 to 2-162 nM into running buffer, injected at 100 μl/min for 210 s and allowed to dissociate for 600 or 14000 s. The CM4 surface was regenerated after each injection cycle of analyte via two injections of 3M MgCl₂ at 50 μl/min. This regeneration step removed the anti-IL-21 antibody and any bound IL-21 from the immobilized capture antibody surface, and allowed for the subsequent binding of the next interaction sample pair.
(§2) No significant non-specific binding to the reference control surface was observed. Binding curves were processed by double referencing (subtraction of reference surface signals as well as blank buffer injections over captured anti-IL-21 antibodies). This allowed correction for instrument noise, bulk shift and drift during sample injections.

[2] = biological target: T1, human recombinant IL-21 (expressed in …); test: SPR Biacore T200; mAb captured by anti-human Fc, hIL-21 analyte
Procedure: as §1, §2

[3] = biological target: T1, human recombinant IL-21 (expressed in …); test: SPR Biacore T200, calculated KD; Exp 2
Procedure: as §1, §2

[4] = biological target: T1, human recombinant IL-21 (expressed in …); test: cell-based or functional assay
[5] = biological target: T1, human recombinant IL-21 (expressed in …); test: cell-based or functional assay; remark: listed apart in the source
[6] = biological target: T1, human recombinant IL-21 (expressed in …); test: SPR Biacore T200, calculated KD; Exp 1
Procedure: as §1, §2

[7] = biological target: T1, human recombinant IL-21 (expressed in …); test: SPR Biacore T200, 25 C; mAb captured by anti-human Fc, hIL-21 analyte, 1:1 Langmuir; Exp 1
Procedure: as §1, §2

[8] = biological target: T1, human recombinant IL-21 (expressed in …); test: crystal structure, Areaimol (CCP4)
Procedure: IL-21 (expressed in E. coli as the mature peptide; residues 30-162 of SEQ ID NO: 1 with an added N-terminal Methionine residue), in PBS buffer, pH 7.4 (4 tablets in 2 liter of water, GIBCO Cat. No. 18912-014 Invitrogen Corporation), and anti-IL-21 Fabs (comprising light chains and heavy chains corresponding to WT or mutants of SEQ ID No. 9 and 10, respectively, see example 6 and 14) formulated in PBS buffer, pH 7.4, were mixed in a 1:1 molar ratio. Crystals were grown with the sitting drop-technique with volumes according to Table 7. Total drop sizes were 0.2 or 0.3 μl, depending on the mixing ratio. Crystals were prepared for cryo-freezing by transferring of 3 μl of a cryo-solution, containing 75% of the precipitant solution and 25% glycerol, to the drop containing the crystal. Soakings were allowed for about one minute. The crystals were then fished into a MiTeGen MicroLoop™, flash frozen in liquid N2 and kept at a temperature of 100 K during data collection by a cryogenic N2 gas stream. Crystallographic data were collected at beam-line BL911-3 (Ursby et al., 2004) at MAX-lab, Lund, Sweden, to resolutions indicated in Table 8. Space group determination, integration and scaling of the data were made with the XDS software package (Kabsch, 2010). For the crystal complexes between hIL-21 and Fab56, Fab57 or Fab60, respectively, the Fab35/hIL-21 crystal structure were used as starting models for rigid body refinements in the Refmac5 software (Murshudov et al., 2011) of the CCP4 crystallography software suite (Bailey, 1994). Rigid body refinements were then followed by restrained crystallographic refinements, using the software programs Refmac5 and by computer graphics inspection of the electron density maps, model corrections and building using the Coot software program (Emsley et al., 2010). The procedure was cycled until no further significant improvements could be made to the model. Table 10, 11 and 13.
Table 9 show the calculated (by the software Areaimol (Lee & Richards, 1971, Saff & Kuijlaars, 1997)), average areas excluded in pair-wise interactions for the hIL-21/Fab56, hIL-21/Fab57, hIL-21/Fab59 and hIL-21/Fab60 complexes, respectively.

Binder | Kd [2] [nM] | Bioactivity as % of RM (mAb37), NK-92 assay (alamarBlue) [4] | IC50 (nM) in B cell proliferation assay, Donor 1 [5] [nM] | IC50 (nM) in B cell proliferation assay, Donor 2 [5] [nM] | Avr Area (average areas excluded in pairwise interactions) [8] [Å^2] | also measured
mAb61 (mAb37 variant, heavy chain D62E) (antibody, human IgG4 S228P, kappa, V domains shown, Human IgG4(S241P), kappa) VH: EVQLVESGGGLVKPGGSLRLSCAASGFIFSSYSMNWVRQAPGKGLEWVSSITSGSYYIHYAESVKGRFTISRDNAKNSLYLQMNSLRAEDTAVYYCVRERGWGYYGMDVWGQGTTVTVSS VL: AIQLTQSPSSLSASVGDRVTITCRASQDIDSALAWYQQKPGKAPKILIHDASSLESGVPSRFSGSGSGTDFTLTISSLQPEDFATYYCQQFNSYPYTFGQGTKLEIKR | < 0.02 | 86.2 % of RM (mAb37) | 0.22 | 0.21 | – | koff [1]: < 1e-05 s⁻¹; kon [1]: 660000 M⁻¹ s⁻¹ and 670000 M⁻¹ s⁻¹; Kd [3]: < 0.015 nM
mAb62 (mAb37 variant, heavy chain K65R) (antibody, human IgG4 S228P, kappa, V domains shown, Human IgG4(S241P), kappa) VH: EVQLVESGGGLVKPGGSLRLSCAASGFIFSSYSMNWVRQAPGKGLEWVSSITSGSYYIHYADSVRGRFTISRDNAKNSLYLQMNSLRAEDTAVYYCVRERGWGYYGMDVWGQGTTVTVSS VL: AIQLTQSPSSLSASVGDRVTITCRASQDIDSALAWYQQKPGKAPKILIHDASSLESGVPSRFSGSGSGTDFTLTISSLQPEDFATYYCQQFNSYPYTFGQGTKLEIKR | < 0.02 | 73.2 % of RM (mAb37) | – | 0.23 | – | Kd [6]: < 0.017 nM; koff [7]: < 1e-05 s⁻¹; kon [7]: 560000 M⁻¹ s⁻¹ and 580000 M⁻¹ s⁻¹ and 600000 M⁻¹ s⁻¹
mAb65 (mAb37 variant, light chain D30E) (antibody, human IgG4 S228P, kappa, V domains shown, Human IgG4(S241P), kappa) VH: EVQLVESGGGLVKPGGSLRLSCAASGFIFSSYSMNWVRQAPGKGLEWVSSITSGSYYIHYADSVKGRFTISRDNAKNSLYLQMNSLRAEDTAVYYCVRERGWGYYGMDVWGQGTTVTVSS VL: AIQLTQSPSSLSASVGDRVTITCRASQDIESALAWYQQKPGKAPKILIHDASSLESGVPSRFSGSGSGTDFTLTISSLQPEDFATYYCQQFNSYPYTFGQGTKLEIKR | < 0.02 | 96.8 % of RM (mAb37) | 0.49 | 0.19 | – | Kd [6]: < 0.019 nM; koff [7]: < 1e-05 s⁻¹; kon [7]: 520000 M⁻¹ s⁻¹ and 530000 M⁻¹ s⁻¹ and 540000 M⁻¹ s⁻¹
mAb63 (mAb37 variant, light chain R24K) (antibody, human IgG4 S228P, kappa, V domains shown) VH: EVQLVESGGGLVKPGGSLRLSCAASGFIFSSYSMNWVRQAPGKGLEWVSSITSGSYYIHYADSVKGRFTISRDNAKNSLYLQMNSLRAEDTAVYYCVRERGWGYYGMDVWGQGTTVTVSS VL: AIQLTQSPSSLSASVGDRVTITCKASQDIDSALAWYQQKPGKAPKILIHDASSLESGVPSRFSGSGSGTDFTLTISSLQPEDFATYYCQQFNSYPYTFGQGTKLEIKR | – | 92.1 % of RM (mAb37) | 0.16 | 0.25 | – | –
mAb64 (mAb37 variant, light chain Q27N) (antibody, human IgG4 S228P, kappa, V domains shown) VH: EVQLVESGGGLVKPGGSLRLSCAASGFIFSSYSMNWVRQAPGKGLEWVSSITSGSYYIHYADSVKGRFTISRDNAKNSLYLQMNSLRAEDTAVYYCVRERGWGYYGMDVWGQGTTVTVSS VL: AIQLTQSPSSLSASVGDRVTITCRASNDIDSALAWYQQKPGKAPKILIHDASSLESGVPSRFSGSGSGTDFTLTISSLQPEDFATYYCQQFNSYPYTFGQGTKLEIKR | – | 116 % of RM (mAb37) | 0.8 | 0.74 | – | –
Fab35 (Fab fragment of mAb14/mAb37) (Fab, V domains shown, also called anti-IL-21 Fab35) VH: EVQLVESGGGLVKPGGSLRLSCAASGFIFSSYSMNWVRQAPGKGLEWVSSITSGSYYIHYADSVKGRFTISRDNAKNSLYLQMNSLRAEDTAVYYCVRERGWGYYGMDVWGQGTTVTVSS VL: AIQLTQSPSSLSASVGDRVTITCRASQDIDSALAWYQQKPGKAPKILIHDASSLESGVPSRFSGSGSGTDFTLTISSLQPEDFATYYCQQFNSYPYTFGQGTKLEIKR | – | – | – | – | 1060 | –
Fab56 (Fab35 with H: D62E mutation; Fab fragment of mAb61) (Fab, V domains shown, also called aIL-21 Fab56) VH: EVQLVESGGGLVKPGGSLRLSCAASGFIFSSYSMNWVRQAPGKGLEWVSSITSGSYYIHYAESVKGRFTISRDNAKNSLYLQMNSLRAEDTAVYYCVRERGWGYYGMDVWGQGTTVTVSS VL: AIQLTQSPSSLSASVGDRVTITCRASQDIDSALAWYQQKPGKAPKILIHDASSLESGVPSRFSGSGSGTDFTLTISSLQPEDFATYYCQQFNSYPYTFGQGTKLEIKR | – | – | – | – | 1070 | –
Fab57 (Fab35 with H: K65R; Fab fragment of mAb62) (Fab, V domains shown, also called aIL-21 Fab57) VH: EVQLVESGGGLVKPGGSLRLSCAASGFIFSSYSMNWVRQAPGKGLEWVSSITSGSYYIHYADSVRGRFTISRDNAKNSLYLQMNSLRAEDTAVYYCVRERGWGYYGMDVWGQGTTVTVSS VL: AIQLTQSPSSLSASVGDRVTITCRASQDIDSALAWYQQKPGKAPKILIHDASSLESGVPSRFSGSGSGTDFTLTISSLQPEDFATYYCQQFNSYPYTFGQGTKLEIKR | – | – | – | – | 1070 | –
Fab59 (Fab35 with L, Q27N mutation; Fab fragment of mAb64) (Fab, V domains shown, also called aIL-21 Fab59) VH: EVQLVESGGGLVKPGGSLRLSCAASGFIFSSYSMNWVRQAPGKGLEWVSSITSGSYYIHYADSVKGRFTISRDNAKNSLYLQMNSLRAEDTAVYYCVRERGWGYYGMDVWGQGTTVTVSS VL: AIQLTQSPSSLSASVGDRVTITCRASNDIDSALAWYQQKPGKAPKILIHDASSLESGVPSRFSGSGSGTDFTLTISSLQPEDFATYYCQQFNSYPYTFGQGTKLEIKR | – | – | – | – | 1170 | –
Fab60 (Fab35 with L, D30E mutation; Fab fragment of mAb65) (Fab, V domains shown, also called aIL-21 Fab60) VH: EVQLVESGGGLVKPGGSLRLSCAASGFIFSSYSMNWVRQAPGKGLEWVSSITSGSYYIHYADSVKGRFTISRDNAKNSLYLQMNSLRAEDTAVYYCVRERGWGYYGMDVWGQGTTVTVSS VL: AIQLTQSPSSLSASVGDRVTITCRASQDIESALAWYQQKPGKAPKILIHDASSLESGVPSRFSGSGSGTDFTLTISSLQPEDFATYYCQQFNSYPYTFGQGTKLEIKR | – | – | – | – | 1100 | –
